Measured values: patent US20200069813A1 (S M DISCOVERY GROUP, published 2020)
Where no end group is shown, it is not given here. 5‑FAM = fluorescein amidite

Key:
[1] = target: T1, transferrin receptor (TFRC) (human, UniProt P02786 1-760); experiment: Uptake by hCMEC/D3 cells after TFRC siRNA knock-down, FACS and fluorescence microscopy
T1 construct: whole, on cells; Endogenous receptor on hCMEC/D3 cells; No purified receptor was used
Procedure: Cell nucleus stained with Hoechest 33342, Insert bars=50 μm.
The commercial transfection reagent siPORT Amine/TFRC siRNA complex was incubated for 72 h in hCMEC/D3 cells including an unspecific siRNA (siControl) as control.

[2] = target: T2, receptor for advanced glycation end products (RAGE) (human, UniProt Q15109 23-404); experiment: Uptake by hCMEC/D3 cells after RAGE siRNA knock-down, FACS and fluorescence microscopy
T2 construct: whole, on cells; Endogenous receptor on hCMEC/D3 cells; No purified receptor was used; also called RAGE receptor
T2 sequence (Q15109 23-404): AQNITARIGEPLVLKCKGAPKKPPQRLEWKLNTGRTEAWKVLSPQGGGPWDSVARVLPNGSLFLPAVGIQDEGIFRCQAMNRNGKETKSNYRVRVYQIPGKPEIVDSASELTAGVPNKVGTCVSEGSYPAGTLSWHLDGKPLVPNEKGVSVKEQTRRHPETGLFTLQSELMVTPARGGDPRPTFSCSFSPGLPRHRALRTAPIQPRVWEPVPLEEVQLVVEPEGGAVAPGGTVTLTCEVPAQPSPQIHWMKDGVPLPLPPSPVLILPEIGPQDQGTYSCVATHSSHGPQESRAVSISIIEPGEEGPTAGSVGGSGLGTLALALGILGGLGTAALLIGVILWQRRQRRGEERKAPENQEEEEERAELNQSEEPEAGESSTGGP

T1 sequence (P02786 whole entry): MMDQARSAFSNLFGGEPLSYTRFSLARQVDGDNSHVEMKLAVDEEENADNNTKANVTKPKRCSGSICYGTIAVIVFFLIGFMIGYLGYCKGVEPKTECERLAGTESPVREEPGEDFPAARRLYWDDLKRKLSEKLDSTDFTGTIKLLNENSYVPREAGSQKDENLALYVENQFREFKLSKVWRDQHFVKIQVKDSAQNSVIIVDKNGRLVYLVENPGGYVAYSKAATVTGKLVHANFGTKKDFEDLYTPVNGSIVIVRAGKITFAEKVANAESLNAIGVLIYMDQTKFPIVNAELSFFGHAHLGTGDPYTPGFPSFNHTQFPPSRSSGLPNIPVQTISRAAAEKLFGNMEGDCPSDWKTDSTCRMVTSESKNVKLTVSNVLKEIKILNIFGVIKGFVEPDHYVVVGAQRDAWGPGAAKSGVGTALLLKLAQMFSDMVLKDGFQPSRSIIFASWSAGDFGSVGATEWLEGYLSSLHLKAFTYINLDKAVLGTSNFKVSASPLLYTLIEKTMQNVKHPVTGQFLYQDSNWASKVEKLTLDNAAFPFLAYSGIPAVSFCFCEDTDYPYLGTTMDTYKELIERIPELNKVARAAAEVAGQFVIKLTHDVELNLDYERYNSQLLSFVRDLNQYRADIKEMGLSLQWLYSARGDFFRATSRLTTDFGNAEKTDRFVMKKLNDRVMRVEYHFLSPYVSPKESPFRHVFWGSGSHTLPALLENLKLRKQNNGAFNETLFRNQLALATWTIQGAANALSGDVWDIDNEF

B1: FAM-CGY peptide (5-FAM-Cys-Gly-Tyr-Arg-Pro-Val-His-Asn-Ile-Arg-Gly-His-Trp-Ala-Pro-Gly) (peptide)
peptide: {5‑FAM}-CGYRPVHNIRGHWAPG
modifications: also: forms assemblies with intermolecular Cys disulfides
notes: Synthetic peptide conjugate; also called FAM-CGY nanoparticles; FAM-CGY peptidic nanoparticles
B1: binds [1]; binds [2].
